Measurements published in patent US20240400663A1 (Regeneron, published 2024).

What was measured:
Assay in all cases: cell-based or functional assay
[1] = molecular target: T1, PfRH5 of Plasmodium falciparum strain Dd2 (on live parasites) (Plasmodium falciparum)
[2] = molecular target: PfRH5 of Plasmodium falciparum strain W2-mef (on live parasites) (Plasmodium falciparum)
[3] = molecular target: PfRH5 of Plasmodium falciparum strain 7G8 (on live parasites) (Plasmodium falciparum)
[4] = molecular target: PfRH5 of Plasmodium falciparum strain Cam3.II (on live parasites) (Plasmodium falciparum)
[5] = molecular target: PfRH5 of Plasmodium falciparum strain D10 (on live parasites) (Plasmodium falciparum)
[6] = molecular target: PfRH5 of Plasmodium falciparum strain FCR-1/FVO (on live parasites) (Plasmodium falciparum)
[7] = molecular target: PfRH5 of Plasmodium falciparum strain HB3 (on live parasites) (Plasmodium falciparum)
[8] = molecular target: PfRH5 of Plasmodium falciparum strain RF7 (on live parasites) (Plasmodium falciparum)
[9] = molecular target: T1, PfRH5 of Plasmodium falciparum strain …; remark: listed apart in the source

Binder | Max growth inhibition (%) Dd2 [1] [%] | Max growth inhibition (%) W2-mef [2] [%] | Max growth inhibition (%) 7G8 [3] [%] | Max growth inhibition (%) Cam3.II [4] [%] | Max growth inhibition (%) D10 [5] [%] | Max growth inhibition (%) FCR-1/FVO [6] [%] | Max growth inhibition (%) HB3 [7] [%] | Max growth inhibition (%) RF7 [8] [%] | Maximum growth inhibition (%) Dd2 [9] [%]
H1H29209P2 (antibody, V domains shown) VH: QLQLQESGPGLVKPSETLSLTCTVSGGSISSRSHYWGWIRQPPGKGLEWIGSIYYSGSTYYNPSLKSRVTISVDTSKNQFSLKLSSVTAADTAVYYCARLGWYAEEAFEIWGQGTMVTVSS VL: not shown | 38.1 | 39.6 | 49.9 | 47.3 | 72.7 | 19.2 | 52.4 | 11.9 | 
H1H29214P2 (antibody, V domains shown) VH: QLQLQESGPGLVKPSETLSLTCTVSGGSISSSSYYWGWIRQPPGKGLEWIGSIYYSGSTYYNPSLKSRVTISVDTSKNQFSLKLSSVTAADTAVYYCARQGRWERENFDYWGQGTLVTVSS VL: not shown | 47.2 | 52.7 | 56.7 | 46.7 | 76.5 | 13.1 | 59.1 | 11.2 | 
H1H29215P2 (antibody, V domains shown) VH: QVQLQQWGAGLLKPSETLSLTCAVSDESFSDYYWTWIRQPPGKGLEWIGEITHSGSTHYNPSLKSRVTLSVDTSKNHFSLSLNSVTAADTAIYYCARGGDYGGLLDYWGQGTLVTVSS VL: not shown | 22.8 | 37.2 | 33.2 | 27.2 | 35.8 | 54 | 30.1 | 11.3 | 
H1H29127P (antibody, V domains shown) VH: QVQLVESGGGVVQPGRSLRLSCAASGFTFSSYGMHWVRQAPGKGLEWVAAIWYDGSNKYYADSVKGRFTISRDNSKNTLYLQMNSLRAEDTAVYFCARGEHYYGSGPFDPWGQGTLVTVSS VL: DIQMTQSPSSLSASVGDRVTITCRASQSISNYLNWYQQKPGKAPKLLIFAASSLQSGVPSRFSGSGSGTDFTLTISSLQPEDFATYYCQQSYSSPLTFGGGTKVEIKR | 64.7 | 53.6 | 61.2 | 47 | 74.4 | 61.1 | 59.4 | 25.7 | 56.9
H1H29106P (antibody, V domains shown) VH: QVQLVESGGGVVQSGRSLRLSCAASSFTFSSYGMHWVRQSPGKGLEWVAVISYDGSNKYYGDFVRGRFTISRDNSKNTLYLQMNSLRAEDTAMYYCAREVRRYYYYGMDVWGQGTTVTVSS VL: not shown | 54 | 48.9 | 55.5 | 51.7 | 74.9 | 54.3 | 48.4 | 27.4 | 
H1H29109P (antibody, V domains shown) VH: EVQLVESGGGLVQPGRSLRLSCAVSGFTFDDYAMHWVRQAPGKGLEWVSGISWNSGDIDYADSVKGRFTISRDNAKNSLYLQMNSLRAEDTALYYCAKDTLSGTGTTWYYFDYWGQGTLVTVSS VL: DIQLTQSPSFLSASVGDRVTITCWASQGISSYLIWYQQKPGKAPKLLIYAASTLQSGVPSRFSGSGSGTEFTLTISSLQPEDFATYYCQQVNSYPLTFGGGTKVEIKR | 42 | 37.9 | 39 | 35.9 | 44.8 | 56.7 | 32.2 | 8.24 | 
